Test results published in the supplement of paper PMC7125110.
± gives the standard error. For some assays here: Variants at the floor of the assay were thinned out.

B1: glmS ribozyme (parent)
chain: AUAAAAGCGCCAGAACUACAGAAAUGUAGUUGACGAGGAGGAGGUUUAUCGAAUUUUCGGCGGAUGCCUCCAAA

Assays:
Details in all cases: with glucosamine-6-phosphate
glucosamine-6-phosphate [1] = variants of: B1; assay: kcat; higher = faster cleavage; RNA array
Summary of the method: (§1)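 E. coli RNA polymerase transcribed barcoded ribozyme variants in situ on sequenced MiSeq chips, which were tracked via a hybridised Cy3 probe at 37 °C. Tiles were imaged over ~14 h after glucosamine-6-phosphate (40 μM to 10 mM) in HEPES/KCl/Mg(OAc)2 buffer was flowed in. Normalised per-tile medians were fit to one- or two-exponential decays for kobs, and kcat and KM came from weighted Michaelis–Menten fits.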

glucosamine-6-phosphate [2] = variants of: B1; assay: self-cleavage kobs at 640 uM GlcN6P; higher = faster cleavage; RNA array
Summary of the method: as §1

glucosamine-6-phosphate [3] = variants of: B1; assay: self-cleavage kobs at 2500 uM GlcN6P; higher = faster cleavage; RNA array
Summary of the method: as §1

glucosamine-6-phosphate [4] = variants of: B1; assay: self-cleavage kobs at 10000 uM GlcN6P; higher = faster cleavage; RNA array
Summary of the method: as §1

glucosamine-6-phosphate [5] = variants of: B1; assay: KM; higher = weaker cofactor use; RNA array
Summary of the method: as §1

glucosamine-6-phosphate [6] = variants of: B1; assay: self-cleavage kobs at 160 uM GlcN6P; higher = faster cleavage; RNA array
Summary of the method: as §1

glucosamine-6-phosphate [7] = variants of: B1; assay: self-cleavage kobs at 40 uM GlcN6P; higher = faster cleavage; RNA array
Summary of the method: as §1

## AUAAAAGCGCCAGAACUACAGAAAUGUAAUUGACGAGGAUGAGGUUUAUCGAAUUUUCGGCGGAUGCCUCCAAA [G29A G40U]
glucosamine-6-phosphate [1]
  kcat: 0.000248 ± 5.6e-05 s⁻¹
glucosamine-6-phosphate [2]
  self-cleavage kobs at 640 uM GlcN6P: 8.95e-05 ± 1.9e-05 s⁻¹
glucosamine-6-phosphate [3]
  self-cleavage kobs at 2500 uM GlcN6P: 0.000207 ± 2.8e-05 s⁻¹
glucosamine-6-phosphate [4]
  self-cleavage kobs at 10000 uM GlcN6P: 0.000182 ± 4e-05 s⁻¹

## AUAAAAGCGCCAGAACUACAGAAAUGUAAUUGACGAGGAAGAGGUUUAUCGAAUUUUCGGCGGAUGCCUCCAAA [G29A G40A]
glucosamine-6-phosphate [1]
  kcat: 0.000354 ± 5.1e-05 s⁻¹
glucosamine-6-phosphate [5]
  KM: 1090 ± 350 µM
glucosamine-6-phosphate [6]
  self-cleavage kobs at 160 uM GlcN6P: 3.78e-05 ± 1.7e-05 s⁻¹
glucosamine-6-phosphate [2]
  self-cleavage kobs at 640 uM GlcN6P: 0.000154 ± 2.9e-05 s⁻¹
glucosamine-6-phosphate [3]
  self-cleavage kobs at 2500 uM GlcN6P: 0.000222 ± 3.7e-05 s⁻¹
glucosamine-6-phosphate [4]
  self-cleavage kobs at 10000 uM GlcN6P: 0.000353 ± 7.2e-05 s⁻¹

## AUAAAAGCGCCAGAACUACAGAAAUGUAAUUGACGAGGAGGAGGUUUAUCGAAUUUUCGGCGGAAGCCUCCAAA [G29A U65A]
glucosamine-6-phosphate [1]
  kcat: 0.000167 ± 6.7e-05 s⁻¹
glucosamine-6-phosphate [2]
  self-cleavage kobs at 640 uM GlcN6P: 0.000132 ± 3e-05 s⁻¹
glucosamine-6-phosphate [3]
  self-cleavage kobs at 2500 uM GlcN6P: 0.000122 ± 2.8e-05 s⁻¹

## AUAAAAGCGCCAGAACUACAGAAAUGUAAUUGACGAGGAGGAGGUUUAUCGAAUUUUCGGCGGAUGCCUGCAAA [G29A C70G]
glucosamine-6-phosphate [1]
  kcat: 6.2e-05 ± 1.1e-05 s⁻¹
glucosamine-6-phosphate [6]
  self-cleavage kobs at 160 uM GlcN6P: 5.22e-05 ± 1.7e-05 s⁻¹
glucosamine-6-phosphate [2]
  self-cleavage kobs at 640 uM GlcN6P: 5.96e-05 ± 1.1e-05 s⁻¹
glucosamine-6-phosphate [3]
  self-cleavage kobs at 2500 uM GlcN6P: 7.74e-05 ± 8.4e-06 s⁻¹
glucosamine-6-phosphate [4]
  self-cleavage kobs at 10000 uM GlcN6P: 4.28e-05 ± 8.6e-06 s⁻¹

## AUAAAAGCGCCAGAACUACAGAAAUGUAAGUGACGAGGAGGAGGUUUAUCGAAUUUUCGGCGGAUGCCUCCAAA [G29A U30G]
glucosamine-6-phosphate [1]
  kcat: 0.00554 ± 0.0022 s⁻¹
glucosamine-6-phosphate [7]
  self-cleavage kobs at 40 uM GlcN6P: 0.000159 ± 2.5e-05 s⁻¹
glucosamine-6-phosphate [6]
  self-cleavage kobs at 160 uM GlcN6P: 0.000288 ± 5.9e-05 s⁻¹
glucosamine-6-phosphate [2]
  self-cleavage kobs at 640 uM GlcN6P: 0.00125 ± 0.00029 s⁻¹
glucosamine-6-phosphate [3]
  self-cleavage kobs at 2500 uM GlcN6P: 0.0021 ± 0.00068 s⁻¹
glucosamine-6-phosphate [4]
  self-cleavage kobs at 10000 uM GlcN6P: 0.00513 ± 0.00085 s⁻¹

## AUAAAAGCGCCAGAACUACAGAAAUGUAAUUGACGAGGAGGAGGUUUAUCGAAUUUACGGCGGAUGCCUCCAAA [G29A U57A]
glucosamine-6-phosphate [1]
  kcat: 4e-05 ± 1.6e-06 s⁻¹
glucosamine-6-phosphate [5]
  KM: 877 ± 180 µM
glucosamine-6-phosphate [4]
  self-cleavage kobs at 10000 uM GlcN6P: 3.64e-05 ± 1.7e-05 s⁻¹

## AUAAAAGCGCCAGAACUACAGAAAUGUAAUUGACGAGGAGGAGGUUUAUCGAAUUCUCGGCGGAUGCCUCCAAA [G29A U56C]
glucosamine-6-phosphate [1]
  kcat: 0.000719 ± 0.00026 s⁻¹
glucosamine-6-phosphate [6]
  self-cleavage kobs at 160 uM GlcN6P: 3.68e-05 ± 1.1e-05 s⁻¹
glucosamine-6-phosphate [2]
  self-cleavage kobs at 640 uM GlcN6P: 0.000156 ± 2.2e-05 s⁻¹
glucosamine-6-phosphate [3]
  self-cleavage kobs at 2500 uM GlcN6P: 0.000226 ± 3.3e-05 s⁻¹
glucosamine-6-phosphate [4]
  self-cleavage kobs at 10000 uM GlcN6P: 0.000619 ± 6.7e-05 s⁻¹

## AUAAAAGCGCCAGAACUACAGAAAUGUAAUUGACGAGGAGGAGGUUUAUCGAAAUUUCGGCGGAUGCCUCCAAA [G29A U54A]
glucosamine-6-phosphate [1]
  kcat: 0.00945 ± 0.0024 s⁻¹
glucosamine-6-phosphate [5]
  KM: 3150 ± 1100 µM
glucosamine-6-phosphate [7]
  self-cleavage kobs at 40 uM GlcN6P: 0.000135 ± 2.1e-05 s⁻¹
glucosamine-6-phosphate [2]
  self-cleavage kobs at 640 uM GlcN6P: 0.0011 ± 0.00037 s⁻¹
glucosamine-6-phosphate [3]
  self-cleavage kobs at 2500 uM GlcN6P: 0.00422 ± 0.00084 s⁻¹
glucosamine-6-phosphate [4]
  self-cleavage kobs at 10000 uM GlcN6P: 0.00745 ± 0.0014 s⁻¹

## AUAAAAGCGCCAGAACUACAGAAAUGUAAUUGACGAGGAGGAGGAUUAUCGAAUUUUCGGCGGAUGCCUCCAAA [G29A U45A]
glucosamine-6-phosphate [1]
  kcat: 0.0109 ± 0.003 s⁻¹
glucosamine-6-phosphate [5]
  KM: 3200 ± 1300 µM
glucosamine-6-phosphate [7]
  self-cleavage kobs at 40 uM GlcN6P: 0.000219 ± 4.2e-05 s⁻¹
glucosamine-6-phosphate [6]
  self-cleavage kobs at 160 uM GlcN6P: 0.000411 ± 0.00014 s⁻¹
glucosamine-6-phosphate [2]
  self-cleavage kobs at 640 uM GlcN6P: 0.00159 ± 0.00032 s⁻¹
glucosamine-6-phosphate [3]
  self-cleavage kobs at 2500 uM GlcN6P: 0.00447 ± 0.0012 s⁻¹
glucosamine-6-phosphate [4]
  self-cleavage kobs at 10000 uM GlcN6P: 0.00857 ± 0.0012 s⁻¹

## AUAAAAGCGCCAGAACUACAGAAAUGUACUUGUCGAGGAGGAGGUUUAUCGAAUUUUCGGCGGAUGCCUCCAAA [G29C A33U]
glucosamine-6-phosphate [1]
  kcat: 2.55e-05 ± 6.2e-07 s⁻¹
glucosamine-6-phosphate [5]
  KM: 979 ± 140 µM
glucosamine-6-phosphate [4]
  self-cleavage kobs at 10000 uM GlcN6P: 2.33e-05 ± 1.2e-05 s⁻¹

## AUAAAAGCGCCAGAACUACAGAAAUGUAAUUGACGAGGAGGAGGUUUAUCGAAUUUUCGCCGGAUGCCUCCAAA [G29A G60C]
glucosamine-6-phosphate [1]
  kcat: < 1e-05 s⁻¹
glucosamine-6-phosphate [2]
  self-cleavage kobs at 640 uM GlcN6P: < 1e-05 s⁻¹
glucosamine-6-phosphate [4]
  self-cleavage kobs at 10000 uM GlcN6P: < 1e-05 s⁻¹

## AUAAAAGCGCCAGAACUACAGAAAUGUAAUUGACGAGGAGGAGGUUUAUCGAAUUUUCGGCGGAUUCCUCCAAA [G29A G66U]
glucosamine-6-phosphate [1]
  kcat: 0.000177 ± 5.1e-05 s⁻¹
glucosamine-6-phosphate [2]
  self-cleavage kobs at 640 uM GlcN6P: 6.51e-05 ± 2e-05 s⁻¹
glucosamine-6-phosphate [3]
  self-cleavage kobs at 2500 uM GlcN6P: 6.95e-05 ± 1.9e-05 s⁻¹
glucosamine-6-phosphate [4]
  self-cleavage kobs at 10000 uM GlcN6P: 0.00015 ± 1.9e-05 s⁻¹

## AUAAAAGCGCCAGAACUACAGAAAUGUAAUAGACGAGGAGGAGGUUUAUCGAAUUUUCGGCGGAUGCCUCCAAA [G29A U31A]
glucosamine-6-phosphate [1]
  kcat: 0.00193 ± 0.00042 s⁻¹
glucosamine-6-phosphate [5]
  KM: 1110 ± 410 µM
glucosamine-6-phosphate [7]
  self-cleavage kobs at 40 uM GlcN6P: 6.33e-05 ± 1.9e-05 s⁻¹
glucosamine-6-phosphate [6]
  self-cleavage kobs at 160 uM GlcN6P: 0.000184 ± 7.5e-05 s⁻¹
glucosamine-6-phosphate [2]
  self-cleavage kobs at 640 uM GlcN6P: 0.00109 ± 0.00022 s⁻¹
glucosamine-6-phosphate [3]
  self-cleavage kobs at 2500 uM GlcN6P: 0.00129 ± 0.00029 s⁻¹
glucosamine-6-phosphate [4]
  self-cleavage kobs at 10000 uM GlcN6P: 0.00165 ± 0.00037 s⁻¹

## AUAAAAGCGCCAGAACUACAGAAAUGUAAUUAACGAGGAGGAGGUUUAUCGAAUUUUCGGCGGAUGCCUCAAAA [G29A G32A C71A]
glucosamine-6-phosphate [1]
  kcat: 0.000259 ± 0.00011 s⁻¹
glucosamine-6-phosphate [2]
  self-cleavage kobs at 640 uM GlcN6P: 6.03e-05 ± 2.6e-05 s⁻¹
glucosamine-6-phosphate [4]
  self-cleavage kobs at 10000 uM GlcN6P: 0.000201 ± 4.4e-05 s⁻¹

## AUAAAAGCGCCAGAACUACAGAAAUGUAAUUGACGAGCAGGAGGUUUAUCGAAUUUUCGGCGGAUGCCUCCAAA [G29A G38C]
glucosamine-6-phosphate [1]
  kcat: < 1e-05 s⁻¹
glucosamine-6-phosphate [4]
  self-cleavage kobs at 10000 uM GlcN6P: < 1e-05 s⁻¹

## AUAAAAGCGCCAGAACUACAGAAAUGUAAUUGACGAGAAGGAGGUUUAUCGAAUUUUCGGCGGAUGACUCCAAA [G29A G38A C67A]
glucosamine-6-phosphate [1]
  kcat: 1.79e-05 ± 4.1e-06 s⁻¹

## AUAAAAGCGCCAGAACUACAGAAAUGUACUUGACGAGGUGGAGGUUUAUCGAAUUUUCGGCGGAUGCCUCCAAA [G29C A39U]
glucosamine-6-phosphate [1]
  kcat: 0.00205 ± 0.00072 s⁻¹
glucosamine-6-phosphate [7]
  self-cleavage kobs at 40 uM GlcN6P: 5.54e-05 ± 1.3e-05 s⁻¹
glucosamine-6-phosphate [6]
  self-cleavage kobs at 160 uM GlcN6P: 6.75e-05 ± 1.6e-05 s⁻¹
glucosamine-6-phosphate [2]
  self-cleavage kobs at 640 uM GlcN6P: 0.000323 ± 6.3e-05 s⁻¹
glucosamine-6-phosphate [3]
  self-cleavage kobs at 2500 uM GlcN6P: 0.000753 ± 0.00014 s⁻¹
glucosamine-6-phosphate [4]
  self-cleavage kobs at 10000 uM GlcN6P: 0.00153 ± 0.00022 s⁻¹
